Data taken from publication PMC12394453 (Signal Transduction and Targeted Therapy, 2025).

B1: 14F8 Fab (Fab, V domains shown)
VH: QVQLKESGPGLVAPSQSLSITCTVSGFSLTSYDISWIRQPPGKGLEWLGVIWTGGVTNYNSAFLSRLSISKDNSKSQVFLKMNSLQTDDTAIYYCVREGDWFFDVWGAGTTVTVSS
VL: DVLMTQTPLSLPVSLGDQASISCRSSQSIVHSNGNTYLEWYLQKPGQSPQLLIYKVSNRFSGVPDRFSGSGSGTDFTLKINRVEAEDLGLYYCFQASHVPYTFGGGTKLEIK
notes: also called 14F8 Fab fragment
B2: chimeric antibody 14F8 (variable regions of mouse m14F8 on a human IgG1 constant region backbone) (antibody, V domains shown)
VH: B1 VH
VL: B1 VL
notes: also called Humanized 14F8; m14F8 (mouse parent)

Legend:
Details in all cases: both partners purified
[1] = target: NiV-G head domain (crystallisation construct, deglycosylated) (Nipah virus, NP_112027 / Q9IH62 …); experiment: crystal structure
[2] = target: T1, HeV-G (wild-type Hendra virus attachment glycoprotein G, soluble recombinant) (Hendra virus, UniProt O89343); experiment: SPR
T1 construct: source: Expi-293F, purified (StrepTrap HP)

[3] = target: deglycosylated NiV-G (N-linked glycans removed with PNGase F) (Nipah virus, Bangladesh isolate …, UniProt Q4VCP5, strain, N-linked glycans removed with PNGase F); experiment: SPR; Biacore T200; antibody (0.5 μg/mL in HBS-EP+) […]; association 120 s, dissociation 900 s

| Binder | binding result [1] | binding result [2] | binding result [3] |
| --- | --- | --- | --- |
| B1 | binds |  |  |
| B2 |  | no binding (tested: 100 nM) | binds |
